Experimental findings from patent publication US20180318451A1 (published 2018) are described below.

For assay [1], the target named is T1, rhPSMA, extracellular part of human PSMA (residues 44-750) with its native N-terminus (human, UniProt Q04609 44-750, N-glycosylated (made in Schneider S2 insect cells)).
T1 construct: range 44-750; No tag; also called wild-type rhPSMA; rhGCPII
The experiment in a line: SPR (BIAcore 2000), rhPSMA on chip. The protocol:
(§1) Surface plasmon resonance (SPR) spectroscopy was performed on a BIAcore 2000 instrument (BIAcore) following published procedures (Gebauer, M. et al. [2013] J. Mol. Biol. 425:780-802; De Crescenzo, G. et al. [2008] J. Mol. Recognit. 21:256-266). rhPSMA (1 nM in 10 mM Na-acetate pH 5.0) was immobilized on a CM5 sensor chip (BIAcore) using an amine coupling kit (GE Healthcare, BR100050), resulting in around 500 resonance units (ΔRU). The purified Anticalins were diluted in HEPES buffered saline (HBS; 10 mM HEPES/NaOH, 150 mM NaCl, pH 7.4) with 0.005% v/v Tween 20 to concentrations from 64-2 nM. The instrument was operated using the same running buffer at a flow rate of 25 μL/min. […] Regeneration of the sensor chip was achieved by up to four injections of 10 μL glycine/HCl, pH 2.0. The sensorgrams were corrected by double subtraction of the corresponding signals measured for the in-line control blank channel and an averaged baseline determined from three buffer blank injections³¹. Kinetic parameters were determined by data fitting using a 1:1 Langmuir binding model with BIAevaluation software version 4.1 (BIAcore).
To precisely determine kinetic and thermodynamic binding constants of the PSMA-specific Anticalin A3 and its variants, surface plasmon resonance (SPR) real-time analyses was performed on a BIAcore 2000 instrument. […]

The target in assay [2] is T1, rhPSMA, extracellular part of human …. Briefly: ELISA, rhPSMA coated on MaxiSorp plate, Anticalin dilution series. The text has this:
(§2) FIG. 4: Anticalin affinities towards PSMA as determined by ELISA and BIAcore measurements. Binding activities of Anticalins selected from the original naïve library (A) or resulting from subsequent affinity maturation of the A3 variant (B) were compared in an ELISA. A 96-well MaxiSorp plate was coated with rhPSMA (or ovalbumin as a negative control, not shown) and purified Anticalin variants were applied in dilution series. Anticalin binding was detected using StrepTactin/AP conjugate, followed by chromogenic reaction. Absorption was plotted against the Anticalin concentration and data were analyzed by curve fitting. Binding curves for the best performing clones A3 and A3A5 are shown as solid lines. (C-E) SPR sensograms measured for Anticalins A3, A3A5 and A3A5.1 on a BIAcore 2000 instrument. Approximately 500 RU of rhPSMA was immobilized on a CM5 sensor chip by amine coupling. […]
(§3) 50 μL of rhPSMA (5 μg/mL in TBS) was directly adsorbed onto the surface of a MaxiSorp 96-well plate overnight at 4° C. […] The plates were washed three times and bound Anticalins were detected with StrepTactin-AP as described further above. The data were analyzed using Prism 5 software (GraphPad) and absorption values (A) were fitted according to the formula ΔA=Aₘₐₓ·[Lₜₒₜ]/(KD+[Lₜₒₜ]) with the concentration of the applied lipocalin variant [Lₜₒₜ] and the dissociation constant KD.
(In general: In an ELISA, binding on a coated surface is turned into a signal by an enzyme label.)

For assay [3] the target is unchanged. Briefly: SPR (BIAcore 2000), rhPSMA amine-coupled to CM5 chip, Anticalin as analyte. As for the experimental part:
Anticalin binding was detected using StrepTactin/AP conjugate, followed by chromogenic reaction. Absorption was plotted against the Anticalin concentration and data were analyzed by curve fitting. Binding curves for the best performing clones A3 and A3A5 are shown as solid lines. (C-E) SPR sensograms measured for Anticalins A3, A3A5 and A3A5.1 on a BIAcore 2000 instrument. Approximately 500 RU of rhPSMA was immobilized on a CM5 sensor chip by amine coupling. A dilution series from 64 to 2 nM of the purified Anticalin in HBS was applied and the resulting curves were fitted according to a Langmuir 1:1 binding model. (F) Comparison of parameters from real-time SPR analysis for Anticalins investigated in C-E, together with A3A5.7, in a kₒₙ/koff plot.
as §1
To precisely determine kinetic and thermodynamic binding constants of the PSMA-specific Anticalin A3 and its variants, surface plasmon resonance (SPR) real-time analyses was performed on a BIAcore 2000 instrument. To this end, rhPSMA was chemically coupled to the carboxymethyl dextran matrix of a sensorchip using amine chemistry and a concentrations series of each Anticalin was applied.
A general note: Surface plasmon resonance follows binding to a sensor surface in real time, without labels.

Another assay deals with T2, ovalbumin (UniProt P01012 2-386).
T2 sequence (looked up): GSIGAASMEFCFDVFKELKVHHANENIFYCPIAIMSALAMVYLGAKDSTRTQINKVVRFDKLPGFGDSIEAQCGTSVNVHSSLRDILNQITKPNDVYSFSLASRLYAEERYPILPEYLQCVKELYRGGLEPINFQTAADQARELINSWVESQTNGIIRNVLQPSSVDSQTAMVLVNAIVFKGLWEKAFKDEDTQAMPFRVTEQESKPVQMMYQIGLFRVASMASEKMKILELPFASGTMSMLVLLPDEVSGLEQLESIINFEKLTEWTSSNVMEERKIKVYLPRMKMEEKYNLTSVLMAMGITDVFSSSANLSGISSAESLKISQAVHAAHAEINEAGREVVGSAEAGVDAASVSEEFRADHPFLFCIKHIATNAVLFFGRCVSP
Briefly: ELISA, ovalbumin-coated wells. The text has this: (§4) Enriched lipocalin variants from phage display were subjected to ELISA screening after subcloning of the central BstXI gene cassette on pNGAL98, which also encodes the N-terminal OmpA signal sequence directing the expressed protein into the bacterial periplasm and a C-terminal Strep-tag II for purification (Schmidt, T. G. & Skerra, A. [2007] Nat. Protoc. 2:1528-1535). After transformation of E. coli TG1-F- (Kim, H. J. et al. [2009] J. Am. Chem. Soc. 131:3565-3576) with the ligation mixture, randomly picked colonies were inoculated in a 96-well plate filled with 100 μL of Terrific broth (TB) media supplemented with 100 μg/mL ampicillin per well. Anticalin expression was induced at an optical density of OD₅₅₀=0.3-0.5 by addition of 20 μL TB/Amp containing 1.2 μg/mL anhydrotetracycline (aTc; ACROS Organics, 233131000) overnight at 20° C. The periplasmic extract was prepared as previously described²¹ and applied to 96-well MaxiSorp plates (Nunc, 442404) coated with rhPSMA (5 μg/mL in TBS) and blocked with BSA. Ovalbumin (10 μg/mL in TBS) served as non-related control protein in parallel. After 1 h incubation at room temperature, plates were washed three times with PBS/T and bound lipocalin variants were detected by means of their C-terminal Strep-tag II using StrepTactin conjugated to alkaline phosphatase (IBA, 2-1503-001), diluted 1:5,000 in PBS, for 1 h. Signals were developed by hydrolysis of 0.5 mg/mL p-nitrophenyl phosphate in 0.1 M NaCl, 5 mM MgCl₂, 0.1 M Tris/HCl, pH 8.8, and monitored via absorbance measurement at 405 nm with an Infinite 200 PRO microplate reader (Tecan).
Individual colonies were used for micro-scale expression in a 96-well plate and crude E. coli lysates from these cultures were screened in an ELISA for Anticalins having PSMA-binding activity. To this end, MaxiSorp plates coated with glycosylated rhPSMA were used as a target, whereas ovalbumin-coated wells were used as negative control to assess non-specific binding. Bound Anticalins were detected via the C-terminal Strep-tag II.

Assay [4] addresses T1, rhPSMA, extracellular part of human …. Briefly: ELISA, rhPSMA coated on MaxiSorp plate, Anticalin dilution series, detection by StrepTactin/AP.
Source text: as §2, §3

Assay [5] shares this target. Briefly: SPR (BIAcore), rhPSMA on chip, Anticalin as analyte. The protocol: as §1
Several combinations of mutations occurring in the PSMA-specific Lcn2 variants A3A5.1 (carrying 5 new mutations) and A3A5.7 (carrying 4 new mutations) were prepared in order to investigate the relevance of the mutations that were found during affinity maturation for improved PSMA binding with the aim to create a combined Anticalin variant suitable for further protein engineering studies. A first combination, containing solely the mutations located in the loop regions of the Anticalins, was carried out by introducing the following mutations into the sequence of A3A5 (see SEQ ID NO:2): (i) a Y at position 71 as also present in A3A5.1, (ii) an N at position 74 as also present in A3A5.7, (iii) a D at position 103 as also present in A3A5.1. This triple substitution variant, termed A3A5.8, was obtained by gene synthesis, cloned and subsequently expressed (as described in Example 1).

Assay [6] shares this target. Briefly: SPR (BIAcore), rhPSMA on chip. As for the experimental part: as §1, with “(BIAcore). […]” for “(BIAcore).”
For assay [7] the target is unchanged. The experiment in a line: ELISA, rhPSMA coated on MaxiSorp plate.
Source text: as §4, with “The periplasmic extract was prepared as previously described²¹ and applied to 96-well MaxiSorp plates (Nunc, 442404) coated with rhPSMA (5 μg/mL in TBS) and blocked with BSA. Ovalbumin (10 μg/mL in TBS) served as non-related control protein in parallel.” left out, “(Tecan). […]” for “(Tecan).”

Numbering of substitutions follows the chain as printed.

T1 sequence (Q04609 44-750 limits assumed): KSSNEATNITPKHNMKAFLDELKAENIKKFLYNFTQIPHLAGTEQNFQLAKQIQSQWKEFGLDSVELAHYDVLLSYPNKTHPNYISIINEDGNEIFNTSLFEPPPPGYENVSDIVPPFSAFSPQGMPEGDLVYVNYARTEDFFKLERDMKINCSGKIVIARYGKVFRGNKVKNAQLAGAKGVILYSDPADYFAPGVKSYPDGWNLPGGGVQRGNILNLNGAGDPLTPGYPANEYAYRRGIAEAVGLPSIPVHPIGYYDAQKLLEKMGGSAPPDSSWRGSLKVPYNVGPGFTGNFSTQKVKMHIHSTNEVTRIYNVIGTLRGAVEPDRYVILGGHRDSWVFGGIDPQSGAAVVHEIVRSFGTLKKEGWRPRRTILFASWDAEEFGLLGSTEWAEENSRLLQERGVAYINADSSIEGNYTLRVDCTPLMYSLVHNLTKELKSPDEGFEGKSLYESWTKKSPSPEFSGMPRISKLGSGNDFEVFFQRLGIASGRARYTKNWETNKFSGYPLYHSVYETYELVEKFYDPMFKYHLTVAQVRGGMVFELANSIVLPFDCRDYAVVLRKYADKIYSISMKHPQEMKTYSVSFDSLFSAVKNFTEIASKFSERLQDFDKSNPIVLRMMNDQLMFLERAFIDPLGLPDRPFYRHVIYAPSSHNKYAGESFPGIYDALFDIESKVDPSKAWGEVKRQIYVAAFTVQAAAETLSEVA

B1: Anticalin A3A5 (designed binder)
chain: QDSTSDLIPAPPLSKVPLQQNFQDNQFHGKWYVVGLAGNVILREDKDPYKMSATIYELKEDKSYNVTNVRFYLKKCYYTIATFVPGSQPGEFTLGTIKSGPGKTSGLVRVVSTNYNQHAMVFFKEVQQNREWFIITLYGRTKELTSELKENFIRFSKSLGLPENHIVFPVPIDQCIDG
notes: Differs from A3 by Val for Met at position 40; monomeric, 21 kDa; also called variant A3A5; not shown: C-terminal Strep-tag II
Regarding B1, in assay [1], the “fold improvement of KD against A3” value was 2 fold. In assay [2], the affinity, expressed as Kd, was 2.1 nM. Also, in assay [3], the affinity, expressed as Kd, was 2.5 nM; the koff – broadly, a measure of how fast the partners let go of each other – came out at 0.00017 s⁻¹; the kon (commonly a measure of how fast the partners come together) worked out at 71000 M⁻¹ s⁻¹.

B2: Anticalin A3A5.1 (designed binder)
chain: B1 chain with K59N, F71Y, F92Y, K103D, E147K
notes: Soluble form as in SPR; also called variant A3A5.1; not shown: C-terminal Strep-tag II
Consider B2, for which, in assay [3], binding was put at a Kd of 0.66 nM, the koff turned out to be 0.00014 s⁻¹ and the kon amounted to 210000 M⁻¹ s⁻¹.

B3: Anticalin A3 (designed binder)
chain: B1 chain with V40M
notes: Lcn2-derived lipocalin variant, monomeric, made by periplasmic secretion in E. coli from pNGAL98 with a C-terminal Strep-tag II; also called variant A3; not shown: C-terminal Strep-tag II
B3: the binding result with ovalbumin is recorded as “no binding”. In addition, in assay [4], the Kd (usually a measure of binding affinity in units of concentration) came to 6 nM. The Kd in assay [2] turned out to be 5.8 nM. In assay [3], the Kd amounted to 4.8 nM, the koff was found to be 0.00058 s⁻¹ and the kon worked out at 120000 M⁻¹ s⁻¹.

B4: Anticalin A3A5.7 (designed binder)
chain: B1 chain with K74N, Q88R, N116S, E147K
notes: Soluble form as in SPR; also called variant A3A5.7; not shown: C-terminal Strep-tag II
As for B4, in assay [3], binding was characterised by a dissociation constant (Kd) of 0.54 nM, the koff stood at 0.00014 s⁻¹ and the kon was found to be 270000 M⁻¹ s⁻¹.

B5: Anticalin A3A5.9 (designed binder)
chain: B1 chain with F71Y, K74N, K103D, E147K
notes: A3A5.8 with K for E at position 147; also called variant A3A5.9; not shown: C-terminal Strep-tag II
B5: in assay [5], the Kd came to 0.74 nM, the koff was 0.00016 s⁻¹ and the kon was found to be 220000 M⁻¹ s⁻¹.

B6: Anticalin A3A5.8 (designed binder)
chain: B1 chain with F71Y, K74N, K103D
notes: A3A5 with Y at 71, N at 74 and D at 103; also called variant A3A5.8; not shown: C-terminal Strep-tag II
Take B6: in assay [5], the Kd was 1.4 nM, the koff was 0.00015 s⁻¹ and the kon was 110000 M⁻¹ s⁻¹. In assay [6], the “fold improvement of KD against A3A5” value was roughly 2 fold.

B7: Anticalin candidate H5 (designed binder)
chain: QDSTSDLIPAPPLSKVPLQQNFQDNQFHGKWYVVGTAGNWPLREDKDPHKMSATIYELKEDKSYNVTNVQFSSKKCLYFIGTFVPGSQPGEFTLGPIKSAPGQTSGLVRVVSTNYNQHAMVFFKQVIQNREAFIITLYGRTKELTSELKENFIRFSKSLGLPENHIVFPVPIDQCIDG
notes: not shown: C-terminal Strep-tag II
As to B7, the values for the binding result (in the assay with ovalbumin; in assay [7]) were “no binding” and “binds”, respectively.

B8: Anticalin candidate A2 (designed binder)
chain: QDSTSDLIPAPPLSKVPLQQNFQDNQFHGKWYVVGRAGNKPLREDKDPLKMWATIYELKEDKSYNVTIVWFDFKKCWYRISTFVPGSQPGEFTLGRIKSAPGVTSGLVRVVSTNYNQHAMVFFKYVFQNREWFHITLYGRTKELTSELKENFIRFSKSLGLPENHIVFPVPIDQCIDG
notes: as for B7
In the case of B8, the binding result with ovalbumin is “no binding”; in assay [7] it was “binds”.
